Molecular target: T1, TNFR1, P19438
T1 chain: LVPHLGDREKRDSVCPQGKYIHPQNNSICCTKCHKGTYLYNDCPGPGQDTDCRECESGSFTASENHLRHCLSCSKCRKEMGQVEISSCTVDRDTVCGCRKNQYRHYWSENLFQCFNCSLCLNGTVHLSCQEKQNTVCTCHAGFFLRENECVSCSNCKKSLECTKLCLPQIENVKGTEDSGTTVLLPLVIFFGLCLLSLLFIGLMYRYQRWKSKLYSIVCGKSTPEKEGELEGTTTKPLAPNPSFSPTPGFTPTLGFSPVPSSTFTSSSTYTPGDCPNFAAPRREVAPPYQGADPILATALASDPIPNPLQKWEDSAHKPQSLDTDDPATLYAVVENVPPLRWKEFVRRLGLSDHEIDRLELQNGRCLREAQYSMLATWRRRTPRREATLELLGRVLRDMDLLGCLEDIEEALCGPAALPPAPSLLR
Test: quantitative single-molecule localization microscopy (dSTORM/PALM); TNFR1 in the plasma membrane at physiological cell surface expression levels, upon TNF binding
Conditions: remark: other sources report otherwise

stoichiometry N: > 3
B1: TNFR1, P19438 30-455 (receptor)
chain: T1 chain
